From paper PMC11134608, “UBR5 forms ligand-dependent complexes on chromatin to regulate nuclear hormone receptor stability” (Molecular cell, 2023)

Target: Full-length human FLAG-UBR5 (human) (UniProt O95071)
Experiment: SEC-MALS; purified UBR5 full length and Δtandem variant
Conditions: remark: other sources report otherwise

stoichiometry N: 4
Substance: Full-length human FLAG-UBR5, O95071 1-2799
